Measured values taken from patent US20170044269A1 (WASHINGTON UNIVERSITY, published 2017).

How the values were obtained:
[1] = target: T1, purified human carcinoembryonic antigen (hCEA) protein (human, UniProt P06731 35-685, limits assumed); test: dilution ELISA, hCEA coated on plate, VHH detected with HRP/anti-E-tag mAb
T1 construct: Bought protein coated on ELISA plates or used in solution to pre-incubate the virus; also called human CEA protein; recombinant hCEA protein (ab742)
T1 sequence (looked up): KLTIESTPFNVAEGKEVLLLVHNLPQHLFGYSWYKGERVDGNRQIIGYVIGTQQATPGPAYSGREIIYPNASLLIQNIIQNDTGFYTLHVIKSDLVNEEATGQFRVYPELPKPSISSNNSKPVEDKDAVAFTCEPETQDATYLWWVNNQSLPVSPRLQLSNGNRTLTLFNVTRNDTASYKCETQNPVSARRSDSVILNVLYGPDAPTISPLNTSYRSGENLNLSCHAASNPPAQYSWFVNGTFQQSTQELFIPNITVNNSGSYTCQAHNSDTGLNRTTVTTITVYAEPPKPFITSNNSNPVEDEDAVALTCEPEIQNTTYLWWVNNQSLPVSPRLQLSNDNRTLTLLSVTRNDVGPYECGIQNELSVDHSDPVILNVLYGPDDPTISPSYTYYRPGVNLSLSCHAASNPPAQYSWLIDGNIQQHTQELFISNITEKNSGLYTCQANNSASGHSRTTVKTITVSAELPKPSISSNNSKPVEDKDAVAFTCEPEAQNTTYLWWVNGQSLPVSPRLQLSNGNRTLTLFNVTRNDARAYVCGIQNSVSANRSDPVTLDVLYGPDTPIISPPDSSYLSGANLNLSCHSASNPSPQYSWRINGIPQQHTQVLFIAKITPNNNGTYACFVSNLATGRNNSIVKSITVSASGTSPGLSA
Procedure: Nunc Maxisorb plates (Nunc) were coated overnight at 4° C. with 1 μg/ml human CEA protein (Abeam, Cambridge, Mass.). The plates were blocked in binding buffer containing 5% w/v non-fat milk in Tris-buffered saline (TBS). […] Plates were incubated at 25° C. for one hour and then washed three times with TBS. Bound VHHs were detected with HRP/anti-E-tag mAb (Bethyl Laboratories, Montgomery, Tex.).
The plates for enzyme-linked immunosorbent assay were coated with purified hCEA protein and then purified VHH were added in wells at various concentrations. (FIG. 2A) Bound VHHs were detected with HRP/anti-E-tag mAb. […] The EC₅₀ values are the VHH concentration that produced 50% maximum signal on the ELISAs.

[2] = target: T1, purified human carcinoembryonic antigen …; test: ELISA, hCEA coated on plate, virions detected with anti-adenovirus goat Ab
[3] = target: T2, human carcinoembryonic antigen (hCEA) expressed on cells (human, UniProt P06731 35-685); test: cell binding for one hour, Ad hexon gene copy number by qPCR, MC38CEA against MC38 cells
T2 construct: whole, on cells; also called hCEA on MC38CEA cells; hCEA on PC-3, LS174T, A549, HS766T cells
T2 sequence (looked up): T1 sequence (looked up)

[4] = target: T2, human carcinoembryonic antigen (hCEA) …; test: cell binding for one hour at 1x10^3 vp per cell, Ad hexon gene copy number per 20 ng total DNA by qPCR
[5] = target: T2, human carcinoembryonic antigen (hCEA) …; test: cell-based or functional assay
[6] = target: T2, human carcinoembryonic antigen (hCEA) …; test: cell binding for one hour at 5x10^3 v.p. per cell, hexon qPCR; hCEA up-regulated by irradiation

B1: JJB-D1 (VHH)
VHH: QVQLVESGGLVQAGGSLRPSCAASGSIFLQNAMGWYRQVPGKQRELVAAITSVDSTNYADSVKGRFTISRDNAKNTVYLQMNSLKPEDTAVYYCNAPWNSDYHWGKGTLVTVSS
notes: Alpaca anti-hCEA VHH, expressed and purified as a thioredoxin fusion protein; not shown: Thioredoxin fusion partner, E-tag and any linkers
Binder B1 has an EC50 [1] of about 1 nM.

B2: JJB-B5 (VHH)
VHH: QVQLVETGGGLVQPGGSLRPSCTASGSIFSIYAMGWYRQASGKQRELVALITRDEVFNYADSVKGRFTISRDNAKDTVYLQMNSLKPEDTAVYYCWVETVNDHYNSGVEDYWGQGTQVTVSS
notes: as for B1
With B2 the EC50 [1] was about 50 nM.

B3: JJB-A3 (VHH)
VHH: QVQLVETGGGLVQPGGSLRLSCAASGRISDINAMGWYRQAPGKQRELVAAITSVGSNYVDSVKGRFTISKDNAKNTVYLQMYSLNPEDTAVYYCNTQCGTWLVCDGRDQWGKGTLVTVSS
notes: Alpaca anti-hCEA VHH, expressed and purified as a thioredoxin fusion protein; the methods name only JJB-A3; not shown: Thioredoxin fusion partner, E-tag and any linkers
In the case of B3, the EC50 [1] is reported as about 0.15 nM.

B4: JJB-B2 (VHH)
VHH: QVQLVETGGGLVQPGGSLRLSCAASESIFSTYAMGWYRQAPGKQRELVAAITTNDIANYADSVKGRFTISRDNAKNTVYLQMNSLNPEDTAVYYCNAIFPPYNYWGQGTQVTVSS
notes: Alpaca anti-hCEA VHH, expressed and purified as a thioredoxin fusion protein; also called clone B2; B2 sdAb; not shown: Thioredoxin fusion partner, E-tag and any linkers
B4 was tested, and the EC50 [1] was about 0.2 nM.

B5: Ad5Luc (Ad5 vector with wild-type Ad5 fiber) (other)
chain: MKRARPSEDTFNPVYPYDTETGPPTVPFLTPPFVSPNGFQESPPGVLSLRLSEPLVTSNGMLALKMGNGLSLDEAGNLTSQNVTTVSPPLKKTKSNINLEISAPLTVTSEALTVAAAAPLMVAGNTLTMQSQAPLTVHDSKLSIATQGPLTVSEGKLALQTSGPLTTTDSSTLTITASPPLTTATGSLGIDLKEPIYTQNGKLGLKYGAPLHVTDDLNTLTVATGPGVTINNTSLQTKVTGALGFDSQGNMQLNVAGGLRIDSQNRRLILDVSYPFDAQNQLNLRLGQGPLFINSAHNLDINYNKGLYLFTASNNSKKLEVNLSTAKGLMFDATAIAINAGDGLEFGSPNAPNTNPLKTKIGHGLEFDSNKAMVPKLGTGLSFDSTGAITVGNKNNDKLTLWTTPAPSPNCRLNAEKDAKLTLVLTKCGSQILATVSVLAVKGSLAPISGTVQSAHLIIRFDENGVLLNNSFLDPEYWNFRNGDLTEGTAYTNAVGFMPNLSAYPKSHGKTAKSNIVSQVYLNGDKTKPVTLTITLNGTQETGDTTPSAYSMSFSWDWSGHNYINEIFATSSYTFSYIAQE
notes: Wild-type fiber on whole purified Ad5 virus particles; control vector; also called wild-type Ad5Luc; fiber unmodified control Ad5Luc vector
B5: no binding [2].

B6: Ad.CXCR4E1 (conditionally replicative Ad5 with wild-type Ad5 fiber) (other)
chain: B5 chain
notes: Wild-type fiber on whole purified virus particles; control vector; also called control CRAd
B6: no binding (tested: 1x10^3 vp per cell) [3].

B7: AdVHH122Luc (Ad5 vector displaying anti-EGFR fiber-fibritin-VHH chimera, clone VHH122) (other)
chain: MKRARPSEDTFNPVYPYDTETGPPTVPFLTPPFVSPNGFQESPPGVLSLRLSEPLVTSNGMLALKMGNGLSLDEAGNLTSQNVYSRLNEIDTKQTTVESDISAIKTSIGYPGNNSIITSVNTNTDNIASINLELNQSGGIKQRLTVIETSIGSDDIPSSIKGQIKDNTTSIESLNGIVGENTSSGLRANVSWLNQIVGTDSSGGQPSPPGSLLNRVSTIETSVSGLNNAVQNLQVEIGNNSAGIKGQVVALNTLVNGTNPNGSTVEERGLTNSIKANETNIASVTQEVNTAKGNISSLQGDVQALQEAGYIPEAPRDGQAYVRKDGEWVFLSTFLSPAGGGGSEVQLQESGGGLVQAGDSLRLSCLVSGRSFNSYTMGWFRQAPGKEREFVAAILWSGPTTYYADSVKGRFTISRDNAKNTVYLQMNSLKPEDTAVYYCAAALGVLVLAPGNVYSYWGQGTQVTVSS
notes: domain: N-terminal Ad5 fiber tail region;domain: entire fibritin protein with the trimerizing foldon domain; Isogenic control vector; chimeric fiber on whole purified Ad5 virus particles; also called FF-VHH122
B7: no binding [2].

B8: Ad.CXCR4E1.B2 (conditionally replicative Ad5 with fiber-fibritin chimera expressing anti-hCEA sdAb clone B2) (other)
chain: MKRARPSEDTFNPVYPYDTETGPPTVPFLTPPFVSPNGFQESPPGVLSLRLSEPLVTSNGMLALKMGNGLSLDEAGNLTSQNVYSRLNEIDTKQTTVESDISAIKTSIGYPGNNSIITSVNTNTDNIASINLELNQSGGIKQRLTVIETSIGSDDIPSSIKGQIKDNTTSIESLNGIVGENTSSGLRANVSWLNQIVGTDSSGGQPSPPGSLLNRVSTIETSVSGLNNAVQNLQVEIGNNSAGIKGQVVALNTLVNGTNPNGSTVEERGLTNSIKANETNIASVTQEVNTAKGNISSLQGDVQALQEAGYIPEAPRDGQAYVRKDGEWVFLSTFLSPAGGGSQVQLVETGGGLVQPGGSLRLSCAASESIFSTYAMGWYRQAPGKQRELVAAITTNDIANYADSVKGRFTISRDNAKNTVYLQMNSLNPEDTAVYYCNAIFPPYNYWGQGTQVTVSSEPKTPKPQ
notes: domain: N-terminal Ad5 fiber tail region;domain: trimerizing domain of the fibritin protein; Chimeric fiber on whole purified virus particles; also called FFB2; fiber-fibritin-B2
B8 was tested, and the “fold binding to hCEA(+) MC38CEA cells against hCEA(-) MC38 cells” value [4] was about 25 fold.

B9: AdC17Luc (Ad5 vector displaying anti-hCEA fiber-fibritin-VHH chimera, clone C17) (other)
chain: MKRARPSEDTFNPVYPYDTETGPPTVPFLTPPFVSPNGFQESPPGVLSLRLSEPLVTSNGMLALKMGNGLSLDEAGNLTSQNVYSRLNEIDTKQTTVESDISAIKTSIGYPGNNSIITSVNTNTDNIASINLELNQSGGIKQRLTVIETSIGSDDIPSSIKGQIKDNTTSIESLNGIVGENTSSGLRANVSWLNQIVGTDSSGGQPSPPGSLLNRVSTIETSVSGLNNAVQNLQVEIGNNSAGIKGQVVALNTLVNGTNPNGSTVEERGLTNSIKANETNIASVTQEVNTAKGNISSLQGDVQALQEAGYIPEAPRDGQAYVRKDGEWVFLSTFLSPAGGGGSEVQLVESGGGFVQAGESLTLSCTSSTLSCTSSTLTFTPYRMAWYRQAPGKQRDLVADISSGDGRTTNYADFAKGRFTISRDNIKNTVFLRMTNLKPEDTAVYYCNTFVSFVGIARSWGQGTQVTVSSEP
B9 was tested, and the “Luc expression in hCEA+ cells (MC38CEA against MC38)” value [5] was about 4 fold.

B10: AdB2Luc (Ad5 vector displaying anti-hCEA fiber-fibritin-VHH chimera, clone B2) (other)
chain: MKRARPSEDTFNPVYPYDTETGPPTVPFLTPPFVSPNGFQESPPGVLSLRLSEPLVTSNGMLALKMGNGLSLDEAGNLTSQNVYSRLNEIDTKQTTVESDISAIKTSIGYPGNNSIITSVNTNTDNIASINLELNQSGGIKQRLTVIETSIGSDDIPSSIKGQIKDNTTSIESLNGIVGENTSSGLRANVSWLNQIVGTDSSGGQPSPPGSLLNRVSTIETSVSGLNNAVQNLQVEIGNNSAGIKGQVVALNTLVNGTNPNGSTVEERGLTNSIKANETNIASVTQEVNTAKGNISSLQGDVQALQEAGYIPEAPRDGQAYVRKDGEWVFLSTFLSPAGGGGSQVQLVETGGGLVQPGGSLRLSCAASESIFSTYAMGWYRQAPGKQRELVAAITTNDIANYADSVKGRFTISRDNAKNTVYLQMNSLNPEDTAVYYCNAIFPPYNYWGQGTQVTVSSEPKTPKPQ
notes: domain: N-terminal Ad5 fiber tail region;domain: entire fibritin protein with the trimerizing foldon domain; The chimeric fiber stood in the assay on whole purified Ad5 virus particles (other capsid proteins present); also called FF-VHH B2; FF-B2
B10 was tested, and the “reporter gene (Luc) expression in hCEA-positive MC38CEA cells in comparison with MC38 cells” value [5] was over 55 fold, the “fold increase of Ad hexon gene copy number in irradiated (6 Gy) against mock-treated A549 cells” value [6] was 5.1 fold and the “fold increase of Ad hexon gene copy number in irradiated (6 Gy) against mock-treated LS174T cells” value [6] was 3.2 fold. For the same binder, the “fold increase of Ad hexon gene copy number in irradiated (6 Gy) against mock-treated PC-3 cells” value [6] was 2.8 fold.
